Literature values as cited in PMC5830908.
pKd: −log10 of the molar value. Read-outs that look alike come from different tables or passages of the source.

What was measured:
K-Ras (Homo sapiens) [1] = biological target: K-Ras (Homo sapiens) (UniProt P01116)
K-Ras (Homo sapiens) [2] = biological target: K-Ras (Homo sapiens) (UniProt P01116); remark: listed apart in the source

**Q.** What does the source list for KRpep-2?
**A.** pKd (K-Ras (Homo sapiens) [1]): 6.15; pKd (K-Ras (Homo sapiens) [2]): 7.29
